Reference: article PMC10999833 (Molecular Biology and Evolution, 2024)
Several values for one entry are separate records, joined by “and”; a condition that tells them apart may be missing. Equal values may be shown once.

Molecular target: the molecule itself
Assay: SEC-MALS

B1: ancestor MBP-His6-J^981–1132 (wild-type bacteriophage λ J, C-terminal 152 amino acids, MBP-tagged) (domain or fragment, UniProt P03749 981-1132, looked up)
chain: NCTINGTLRAEKIVGDIVKAASAAFPRQRESSVDWPSGTRTVTVTDDHPFDRQIVVLPLTFRGSKRTVSGRTTYSMCYLKVLMNGAVIYDGAANEAVQVFSRIVDMPAGRGNVILTFTLTSTRHSADIPPYTFASDVQVMVIKKQALGISVV
Q: With B1 as the protein, how does the “stoichiometry N” value read?
A: 3 and 2
